Data as given in patent US20250195685A1 (CAPSTAN THERAPEUTICS, published 2025).

B1: CBD1033 whole antibody, human IgG1 with Fc-silencing mutations L234A, L235A and P329A (CBD1033-hIgG1-LALAPA) (antibody, V domains shown)
VH: QVQLVQSGAEVKKPGASVKVSCKASRYTFTDYNLHWVRQAPGQGLEWMGFIYPYNGGTGYAQKFQGRVTMTVDTSTSTAYMELSSLRSEDTAVYYCARDHRYNEGVSFDYWGQGTTVTVSS
VL: DIQLTQSPSSLSASVGDRATITCRASESVDGFGNSFMNWYQQKPGKAPKLLIYLASNLESGVPSRFSGSGSGTDFTLTISSVQPEDFATYYCQQNNEDPYTFGQGTKLEIKR
notes: On tLNPs the antibody was SATA-modified or AJICAP-thiolated (CBD1033.29) and conjugated to the LNP; also called CBD1033.3; CBD1033 IgG1
B2: CBD1017ch whole antibody (chimeric CT8 antibody) (antibody, V domains shown)
VH: EVQLQQSGPELVKPGASVKISCKASRYTFTDYNLHWVKLSHEKSLEWIGFIYPYNGGTGYNQKFKNKAKLTVDYSSSTAYMELRSLTSVDAAVYYCARDHRYNEGVSFDYWGQGTTLTVSS
VL: NIVLTQSPASLAVSLGQRATISCRASESVDGFGNSFMNWYQQKPGQSPKLLIYLASNLESGVPARFSGSGSRTDFTLTIDPVEADDAATYYCQQNNEDPYTFGGGTKLEIK
notes: Chimeric antibody comprising the variable regions of the donor antibody CT8; detected with anti-human Fc

Tests used:
[1] = target: T1, human CD8 on cells (CD8-overexpressing HEK293T cells, SupT1, HPB-ALL, human T cells, transfected HEK293 of … (human, UniProt P01732 22-235)); experiment: flow cytometry, Human Expanded T cells Donor 5, gated on live CD8 T cells (via CD3+CD4-)
T1 construct: whole, on cells; also called cell surface CD8
T1 sequence (P01732 22-235): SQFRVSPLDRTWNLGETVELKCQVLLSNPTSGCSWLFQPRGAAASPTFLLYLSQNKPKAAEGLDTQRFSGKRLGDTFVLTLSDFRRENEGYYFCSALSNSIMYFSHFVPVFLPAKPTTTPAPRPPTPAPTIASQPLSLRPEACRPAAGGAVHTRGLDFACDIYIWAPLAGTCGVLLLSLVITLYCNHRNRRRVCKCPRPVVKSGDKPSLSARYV
Procedure: To obtain the results shown in FIG. 8A and FIG. 8B, 5×10⁴ expanded primary T cells (human, cynomolgus macaque or rhesus monkey) were thawed and transferred to a V bottom 96-well culture plate (Corning). Cells were washed twice with Cell Staining buffer (#420201, Biolegend). Each anti-CD8α antibody was diluted in four-fold antibody titration series from 60 μg/mL to 0.057 ng/mL into Cell Staining buffer. Cells were stained with each diluted antibody solution for 30 minutes on ice. Cells were then washed three times with Cell Staining buffer and primary antibody binding was detected by staining with anti-human Fc BV421 conjugate antibody (#410704, Biolegend) at 1:200 dilution for 30 minutes on ice. […] Flow cytometry data was analyzed by Flowjo 10 (Becton, Dickinson & Company) to measure the geometric median fluorescence intensity (gMFI) of the on-cell binding from each antibody. The gMFI values were normalized with the gMFI measured in the sample stained with only the secondary detection antibody and plotted against the concentration of the added antibodies. The binding curves were constructed using Graphpad Prism software, and EC₅₀ values were determined by non-linear curve fitting.

[2] = target: T2, human CD8αα homodimer, recombinant protein (Acro Biosystems) (human, UniProt P01732 22-182); experiment: BLI, whole antibody, steady state dissociation constant (column head x10^-9M)
T2 construct: also called CD8αα antigen; biotinylated CD8α recombinant protein (CDA-H82E3)
T2 sequence (P01732 22-182 limits assumed): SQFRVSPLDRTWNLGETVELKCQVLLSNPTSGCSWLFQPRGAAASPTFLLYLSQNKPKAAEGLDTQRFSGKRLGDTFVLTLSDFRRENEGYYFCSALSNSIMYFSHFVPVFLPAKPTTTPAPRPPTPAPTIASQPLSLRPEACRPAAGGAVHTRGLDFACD
Procedure: (§1) To assess affinity of whole antibodies, steady state analysis was used as the bivalent nature of both whole antibody and CD8α complicates kinetic analysis. 50 nM CD8α-His (that is, CD8α with a C-terminal oligohistidine tag; Acro) was immobilized on Ni-NTA sensor probes. Binding was analyzed with a three-fold antibody dilutions series: 60 nM, 20 nM, 6.67 nM, 2.22 nM, 0.74 nM, and 0.25 nM. The antigen-loaded sensors were incubated in the diluted solutions to capture the whole IgG antibody for 300 s to record the association phase. Sensors were incubated in the kinetic buffer for 900 s to record the dissociation phase. The spin speed was 1000 rpm for all steps except the antigen loading step which was 400 rpm to control density of the antigen. The temperature of the performed assays was at 30° C. during the association and dissociation phases. The sensor data were baseline subtracted and further analyzed in GatorOne software (version 2.10) to determine the equilibrium dissociation constants (KD) of the antibodies by fitting the signals of the steady states to the 1:1 binding model.

[3] = target: T2, human CD8αα homodimer, recombinant …; experiment: BLI binding kinetic analysis, whole antibody, sample stressed at pH 8.5, 40 °C, 3 days
insulin (Sigma) = target: T3, insulin (Sigma); experiment: polyreactive ELISA, insulin coated, 100 nM antibody
T3 construct: Antigen of the polyreactivity ELISA
T3 sequence (P01308 25-54, chain 1 of 2): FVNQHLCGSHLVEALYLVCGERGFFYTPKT
T3 sequence (P01308 90-110, chain 2 of 2): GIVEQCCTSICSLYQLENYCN
Procedure: Insulin ([…]; Sigma) and dsDNA ([…]; Sigma) were coated onto 96-well high-binding ELISA microplates (Corning) at 50 μL per well overnight at 4° C. Plates were blocked with PBS with 0.5% BSA (blocking buffer) at room temperature (RT) for 1 h, followed by three washes with PBST (PBS with 0.1% Tween-20). 50 μL of 100 nM antibody in blocking buffer was added to each well and incubated at RT for 1 h, followed by six washes with 100 μL of PBS. 50 μL of diluted anti-human IgG-horseradish peroxidase (HRP) conjugate (Jackson ImmunoResearch) was added to the wells and incubated for 1 h followed by another six washes. Finally, 50 μL of 3, 3′, 5, 5′-Tetramethylbenzidine (TMB) substrate (Fisher Scientific) was added to each well to develop the detection signal. The reactions were stopped by adding 50 μL of 2 M sulfuric acid to each well. The absorbance was measured at 450 nm using a multimode microplate reader. Ustekinumab as the control antibody with low polyreactivity and bococizumab as a highly polyreactive antibody control were also included in the polyreactive ELISA assessment.
The first assessment tested for low non-specific binding to dsDNA and insulin by ELISA. […] Thus, by this standard, none of the tested antibodies were polyreactive.

[4] = target: T2, human CD8αα homodimer, recombinant …; experiment: BLI steady state analysis, whole antibody, sample stressed at pH 8.5, 40 °C, 3 days
Procedure: as §1

[5] = target: T2, human CD8αα homodimer, recombinant …; experiment: BLI steady state, whole hIgG1-LALAPA antibody on CD8α-His (Ni-NTA sensor), 30 °C

Row | Binder | EC50 [1] [µg/mL] | Kd [2] [nM] | Kd [3] [nM] | koff [3] [s⁻¹] | kon [3] [M⁻¹ s⁻¹] | polyreactivity ELISA score (insulin (Sigma)) | Kd [4] [nM] | Kd [5] [nM]
1 | B1 | 0.094 | 1.43 | 2 | 0.00314 | 1.57e+06 | 1 | 1.71 | –
2 | B2 | 0.051 | – | – | – | – | – | – | 0.58
